We go through 37 variants from the Human Domainome abundance scans (Beltran et al. 2025).

± gives the uncertainty stated by the source.

B1: Far upstream element-binding protein 1, residues 98 to 169; numbered along this chain, Q96AE4 (parent)
chain: RSVMTEEYKVPDGMVGFIIGRGGEQISRIQQESGCKIQIAPDSGGLPERSCMLTGTPESVQSAKRLLDQIVE

In the data set the parent is B1. The data set is described as follows: abundance fitness (aPCA) (normalised: wild type 0, dead -1); higher = more abundant; growth selection in yeast, the domain comes from the species named. The note with it: Homo sapiens.
On to RSVMTEEYKVPDGMVGFIIGRGGEQISRIQQESGCKIQIAPDSDGLPERSCMLTGTPESVQSAKRLLDQIVE [G44D], for which the abundance fitness was -0.017 ± 0.032.
Then RSVMTEEYKVPDGMVGFIIGRGGEQISRIQQESGCKIQIAPDSAGLPERSCMLTGTPESVQSAKRLLDQIVE [G44A], with -0.013 ± 0.026; and RSVMTEEYKVPDGMVGFIIGRGGEQISRIQQESGCKIQIAPDSSGLPERSCMLTGTPESVQSAKRLLDQIVE [G44S], with -0.003 ± 0.025.
In the case of RSVMTEEYKVPDGMVGFIIGRGGEQISRIQQESGCKIQIAPDSRGLPERSCMLTGTPESVQSAKRLLDQIVE [G44R], the abundance fitness was -0.015 ± 0.024.
Turning to RSVMTEEYKVPDGMVGFIIGRGGEQISRIQQESGCKIQIAPDSMGLPERSCMLTGTPESVQSAKRLLDQIVE [G44M], the abundance fitness is -0.012 ± 0.033.
For RSVMTEEYKVPDGMVGFIIGRGGEQISRIQQESGCKIQIAPDSPGLPERSCMLTGTPESVQSAKRLLDQIVE [G44P], the abundance fitness is -0.061 ± 0.03.
Then RSVMTEEYKVPDGMVGFIIGRGGEQISRIQQESGCKIQIAPDSWGLPERSCMLTGTPESVQSAKRLLDQIVE [G44W], with -0.125 ± 0.033; and RSVMTEEYKVPDGMVGFIIGRGGEQISRIQQESGCKIQIAPDSIGLPERSCMLTGTPESVQSAKRLLDQIVE [G44I], with -0.064 ± 0.033; and RSVMTEEYKVPDGMVGFIIGRGGEQISRIQQESGCKIQIAPDSLGLPERSCMLTGTPESVQSAKRLLDQIVE [G44L], with -0.05 ± 0.025.
The figure for RSVMTEEYKVPDGMVGFIIGRGGEQISRIQQESGCKIQIAPDSTGLPERSCMLTGTPESVQSAKRLLDQIVE [G44T] is 0.002 ± 0.028.
Take RSVMTEEYKVPDGMVGFIIGRGGEQISRIQQESGCKIQIAPDSCGLPERSCMLTGTPESVQSAKRLLDQIVE [G44C]: the abundance fitness is -0.019 ± 0.036.
In the case of RSVMTEEYKVPDGMVGFIIGRGGEQISRIQQESGCKIQIAPDSQGLPERSCMLTGTPESVQSAKRLLDQIVE [G44Q], the abundance fitness is -0.023 ± 0.034.
RSVMTEEYKVPDGMVGFIIGRGGEQISRIQQESGCKIQIAPDSFGLPERSCMLTGTPESVQSAKRLLDQIVE [G44F]: the abundance fitness was -0.107 ± 0.035.
Then RSVMTEEYKVPDGMVGFIIGRGGEQISRIQQESGCKIQIAPDSHGLPERSCMLTGTPESVQSAKRLLDQIVE [G44H], with -0.092 ± 0.035.
RSVMTEEYKVPDGMVGFIIGRGGEQISRIQQESGCKIQIAPDSNGLPERSCMLTGTPESVQSAKRLLDQIVE [G44N]: the abundance fitness is -0.024 ± 0.033.
The figure for RSVMTEEYKVPDGMVGFIIGRGGEQISRIQQESGCKIQIAPDSEGLPERSCMLTGTPESVQSAKRLLDQIVE [G44E] is -0.004 ± 0.031; for RSVMTEEYKVPDGMVGFIIGRGGEQISRIQQESGCKIQIAPDSYGLPERSCMLTGTPESVQSAKRLLDQIVE [G44Y] it is -0.037 ± 0.034.
Then RSVMTEEYKVPDGMVGFIIGRGGEQISRIQQESGCKIQIAIDSGGLPERSCMLTGTPESVQSAKRLLDQIVE [P41I], with -0.176 ± 0.048; and RSVMTEEYKVPDGMVGFIIGRGGEQISRIQQESGCKIQIASDSGGLPERSCMLTGTPESVQSAKRLLDQIVE [P41S], with -0.023 ± 0.028; and RSVMTEEYKVPDGMVGFIIGRGGEQISRIQQESGCKIQIANDSGGLPERSCMLTGTPESVQSAKRLLDQIVE [P41N], with -0.051 ± 0.047.
As for RSVMTEEYKVPDGMVGFIIGRGGEQISRIQQESGCKIQIAKDSGGLPERSCMLTGTPESVQSAKRLLDQIVE [P41K], the abundance fitness is -0.04 ± 0.037.
Consider RSVMTEEYKVPDGMVGFIIGRGGEQISRIQQESGCKIQIAFDSGGLPERSCMLTGTPESVQSAKRLLDQIVE [P41F], for which the abundance fitness was -0.198 ± 0.051.
For RSVMTEEYKVPDGMVGFIIGRGGEQISRIQQESGCKIQIARDSGGLPERSCMLTGTPESVQSAKRLLDQIVE [P41R], the abundance fitness is -0.031 ± 0.023.
On to RSVMTEEYKVPDGMVGFIIGRGGEQISRIQQESGCKIQIAQDSGGLPERSCMLTGTPESVQSAKRLLDQIVE [P41Q], for which the abundance fitness was -0.031 ± 0.035.
As to RSVMTEEYKVPDGMVGFIIGRGGEQISRIQQESGCKIQIAYDSGGLPERSCMLTGTPESVQSAKRLLDQIVE [P41Y], the abundance fitness is -0.16 ± 0.051.
The figure for RSVMTEEYKVPDGMVGFIIGRGGEQISRIQQESGCKIQIAVDSGGLPERSCMLTGTPESVQSAKRLLDQIVE [P41V] is -0.111 ± 0.029; for RSVMTEEYKVPDGMVGFIIGRGGEQISRIQQESGCKIQIAMDSGGLPERSCMLTGTPESVQSAKRLLDQIVE [P41M] it is -0.064 ± 0.039.
Consider RSVMTEEYKVPDGMVGFIIGRGGEQISRIQQESGCKIQIATDSGGLPERSCMLTGTPESVQSAKRLLDQIVE [P41T], for which the abundance fitness was -0.016 ± 0.032.
Regarding RSVMTEEYKVPDGMVGFIIGRGGEQISRIQQESGCKIQIAHDSGGLPERSCMLTGTPESVQSAKRLLDQIVE [P41H], the abundance fitness was -0.124 ± 0.049.
Turning to RSVMTEEYKVPDGMVGFIIGRGGEQISRIQQESGCKIQIALDSGGLPERSCMLTGTPESVQSAKRLLDQIVE [P41L], the abundance fitness was -0.155 ± 0.027.
Consider RSVMTEEYKVPDGMVGFIIGRGGEQISRIQQESGCKIQIAPDSGLLPERSCMLTGTPESVQSAKRLLDQIVE [G45L], for which the abundance fitness is -0.115 ± 0.031.
Regarding RSVMTEEYKVPDGMVGFIIGRGGEQISRIQQESGCKIQIAPDSGMLPERSCMLTGTPESVQSAKRLLDQIVE [G45M], the abundance fitness is -0.093 ± 0.041.
Turning to RSVMTEEYKVPDGMVGFIIGRGGEQISRIQQESGCKIQIAPDSGPLPERSCMLTGTPESVQSAKRLLDQIVE [G45P], the abundance fitness is -0.078 ± 0.037.
For the variant RSVMTEEYKVPDGMVGFIIGRGGEQISRIQQESGCKIQIAPDSGQLPERSCMLTGTPESVQSAKRLLDQIVE [G45Q], the abundance fitness is -0.046 ± 0.042.
The figure for RSVMTEEYKVPDGMVGFIIGRGGEQISRIQQESGCKIQIAPDSGNLPERSCMLTGTPESVQSAKRLLDQIVE [G45N] is -0.094 ± 0.067.
Take RSVMTEEYKVPDGMVGFIIGRGGEQISRIQQESGCKIQIAPDSGHLPERSCMLTGTPESVQSAKRLLDQIVE [G45H]: the abundance fitness was -0.163 ± 0.063.
For RSVMTEEYKVPDGMVGFIIGRGGEQISRIQQESGCKIQIAPDSGRLPERSCMLTGTPESVQSAKRLLDQIVE [G45R], the abundance fitness is -0.078 ± 0.026.
